Results reported in PMC3380022, “Basic Residues R260 and K357 Affect the Conformational Dynamics of the Major Facilitator Superfamily Multidrug Transporter LmrP” (PLoS ONE, 2012).

Assays:
[1] = system: CC[n+]1c(-c2ccccc2)c2cc(N)ccc2c2ccc(N)cc21; test: cells, lysate or membranes; settings: 50 mM KPi pH 7.0, 5 mM MgSO4, no proton-motive force, 0.25-10 µM ethidium bromide, non-expressing control subtracted
[2] = system: CC[n+]1c(-c2ccccc2)c2cc(N)ccc2c2ccc(N)cc21; test: facilitated ethidium influx in ATP-depleted cells, fluorimetry, hyperbolic fit; format: cell-based, Lactococcus lactis; settings: 50 mM KPi pH 7.0, 5 mM MgSO4, no proton-motive force, 0.25-10 µM ethidium bromide, non-expressing control subtracted

LmrP (Lactococcus lactis)
Km [1]: 0.92 ± 0.30 µM

LmrP (Lactococcus lactis; K357A)
Km [2]: 1.42 ± 0.29 µM

LmrP (Lactococcus lactis; R260A)
Km [2]: 1.49 ± 0.68 µM
